The values below come from patent publication US20240376207A1 (JIANGSU HENGRUI PHARMACEUTICALS, published 2024).

T1: human PVRIG expressed on cells (human, UniProt Q6DKI7 41-326)
T1 sequence (looked up): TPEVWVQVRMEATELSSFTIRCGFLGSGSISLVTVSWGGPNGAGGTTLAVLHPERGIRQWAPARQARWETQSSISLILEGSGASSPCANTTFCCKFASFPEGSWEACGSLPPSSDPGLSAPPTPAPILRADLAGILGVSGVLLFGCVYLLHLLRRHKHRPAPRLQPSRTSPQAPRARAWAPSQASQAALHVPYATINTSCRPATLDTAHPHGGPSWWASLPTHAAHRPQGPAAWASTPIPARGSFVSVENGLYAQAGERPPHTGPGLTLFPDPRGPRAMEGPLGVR

T2: his-tagged human PVRIG (h-PVRIG-his) recombinant protein (human, UniProt Q6DKI7 41-171, limits assumed)
T2 construct: bought from Acrobiosystems; also called Human PVRIG-his; human PVRIG recombinant protein; not shown: his tag
T2 sequence (looked up): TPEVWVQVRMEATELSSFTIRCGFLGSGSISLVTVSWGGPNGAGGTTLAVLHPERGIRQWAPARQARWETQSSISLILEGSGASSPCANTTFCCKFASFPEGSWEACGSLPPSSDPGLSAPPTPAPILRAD

T3: cynomolgus monkey PVRIG expressed on cells (cynomolgus monkey, UniProt A0A2K5WVV8 1-322)
T3 construct: whole, on cells; also called Monkey PVRIG FACS; cells overexpressing cynomolgus monkey PVRIG
T3 sequence: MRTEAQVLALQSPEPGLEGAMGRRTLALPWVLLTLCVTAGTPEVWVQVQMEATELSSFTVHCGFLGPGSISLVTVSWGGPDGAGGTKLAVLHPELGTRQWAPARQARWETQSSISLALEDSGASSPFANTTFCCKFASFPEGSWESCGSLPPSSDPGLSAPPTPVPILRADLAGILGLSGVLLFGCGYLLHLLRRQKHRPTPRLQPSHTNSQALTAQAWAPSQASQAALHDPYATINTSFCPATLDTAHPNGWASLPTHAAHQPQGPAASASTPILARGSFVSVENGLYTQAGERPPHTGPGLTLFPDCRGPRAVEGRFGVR

B1: humanized anti-PVRIG antibody 39H2 (antibody, human IgG4 S228P, F234A L235A, V domains shown)
VH: EVQLVESGGGLVQPGGSLRLSCAASGFTSRTDCMGWFRQAPGKGLEGVAHIDSDGIPRYVESVKGRFTISRDNAKNSLYLQMNSLRAEDTAVYYCVVGFKFGDYCAPNDWGQGTMVTVSS
B2: humanized anti-PVRIG antibody 39H1 (antibody, human IgG4 S228P, F234A L235A, V domains shown)
VH: B1 VH with S29F, R30S
B3: humanized anti-PVRIG antibody 151H7 (antibody, human IgG4 S228P, F234A L235A, V domains shown)
VH: HVQLVESGGGLVQPGGSLRLSCVASASGFTYRPYCMAWFRQAPGKEREAVAGIDIFGGTTYADSVKGRFTASRDNAGFSLYLQMNSLRAEDTAVYYCAAGDSPDGRCPPLGQGLNYWGQGTMVTVSS
B4: humanized anti-PVRIG antibody 39H4 (antibody, human IgG4 S228P, F234A L235A, V domains shown)
VH: B1 VH with F27Y, R71Q, N73H
B5: humanized anti-PVRIG antibody 30H2 (antibody, human IgG4 S228P, F234A L235A, V domains shown)
VH: EVQLVESGGGLVQPGGSLRLSCAASGFTFSGDCMGWFRQAPGKGLDEGVATIDNAGRIKYADSVKGRFTISRDNAKNSLYLQMNSLRAEDTAVYYCAAGWTFGGQCSPADWGQGTQVTVSS
B6: humanized anti-PVRIG antibody 30H3 (antibody, human IgG4 S228P, F234A L235A, V domains shown)
VH: B5 VH with F27Y, T28S, F29Y
B7: humanized anti-PVRIG antibody 20H5 (antibody, human IgG4 S228P, F234A L235A, V domains shown)
VH: EVQLVESGGGLVQPGGSLRLSCAASGYTSRTDCMGWFRQAPGKEHEGVAHIDSDGIPRYVDSVKGRFTISQDHAKNSLYLQMNSLRAEDTAVYYCVVGFKFDEDYCAPNDWGQGTMVTVSS
B8: humanized anti-PVRIG antibody 151H4 (antibody, human IgG4 S228P, F234A L235A, V domains shown)
VH: B3 VH with H1E, E46G, R47L, A71I, G77K, F78N
B9: humanized anti-PVRIG antibody 38H2 (antibody, human IgG4 S228P, F234A L235A, V domains shown)
VH: EVQLVESGGGVVQPGGSLRLSCAASGFTFSPSDMAWFRQAPGKGLEGVATISAAGRLTYYTDSVRGRFTISRDNSKNTLYLQMNSLRAEDTAVYYCAADFAGGSSLFADYKYWGQGTMVTVSS

Changes are numbered by the printed parent chain.

The first assay addresses T1, human PVRIG expressed on cells. As to the kind of experiment: cell-based or functional assay.
Turning to B1, the “NK92 killing of K562, killing activity (%), 4 nM antibody” value (“NK92 killing … (%), 4 nM antibody” for short) worked out at 15.3%; the “NK92 killing of K562, killing activity (%), 20 nM antibody” value (“NK92 killing … (%), 20 nM antibody” below) was 18.7%; the “NK92 killing of K562, killing activity (%), 100 nM antibody” value (“NK92 killing … (%), 100 nM antibody” below) is 19.7%.

B2: the “NK92 killing … (%), 4 nM antibody” value is 13.7%; the “NK92 killing … (%), 20 nM antibody” value was determined as 17.7%; the “NK92 killing … (%), 100 nM antibody” value is 21.2%.

As to B3, the “NK92 killing … (%), 4 nM antibody” value amounted to 16.9%; the “NK92 killing … (%), 20 nM antibody” value is 21%; the “NK92 killing … (%), 100 nM antibody” value worked out at 18.4%.

In the next assay the target is T2, his-tagged human PVRIG (h-PVRIG-his) …. Briefly: BLI (Fortebio), antibody on Protein A sensor, 1:1 fit. The protocol:
A Protein A biosensor (Fortebio, #18-5010) was immersed in 200 μL of KB buffer (PBS, pH 7.4, 0.02% tween-20, 0.1% BSA) for 60 s for the wetting treatment. Then, the anti-PVRIG antibody was diluted to 10 μg/mL with the KB buffer, and the sensor was immersed in 200 μL of the solution until the reading was 1.2 nm. The sensor was immersed in the KB buffer for 100 s to elute excess antibody. The his-tagged human PVRIG was diluted in a 2-fold gradient to 64 nM-4 nM with the KB buffer. The sensor was immersed in the solution for 300 s for binding. The sensor was immersed in the KB buffer for 600 s for dissociation. The data were fitted in a dynamic 1:1 binding mode.
The affinity of the humanized anti-PVRIG antibodies for human PVRIG was detected according to the method of Example 7. All the antibodies listed in the Table have high affinity for human PVRIG.
(Biolayer interferometry detects binding as a change in optical thickness at a sensor tip.)
What is called Kd is the equilibrium constant for the complex coming apart. Broadly, the koff is the rate constant with which the complex falls apart. The term kon denotes the rate constant with which the complex forms. On to B4, for which the Kd came to 0.482 nM, the off-rate constant (koff) came to 9.11e-05 s⁻¹ and the kon worked out at 189000 M⁻¹ s⁻¹.

B1: the equilibrium dissociation constant (Kd) came to 0.692 nM, the koff was 0.000124 s⁻¹ and the on-rate (kon) was 180000 M⁻¹ s⁻¹.

On to B2, for which the equilibrium dissociation constant (Kd) was 3.28 nM, the koff was 0.000865 s⁻¹ and the kon stood at 264000 M⁻¹ s⁻¹.

As to B5, the dissociation constant (Kd) was found to be 1.92 nM, the koff was 0.000325 s⁻¹ and the association rate constant (kon) is 169000 M⁻¹ s⁻¹.

As to B6, the dissociation constant Kd turned out to be 2.41 nM, the off-rate (koff) turned out to be 0.000358 s⁻¹ and the kon came to 148000 M⁻¹ s⁻¹.

With B3, the Kd was 1.2 nM, the koff was 0.000188 s⁻¹ and the on-rate constant (kon) was 157000 M⁻¹ s⁻¹.

B7: the Kd came out at 0.0698 nM, the koff came to 1.35e-05 s⁻¹ and the on-rate constant (kon) was 193000 M⁻¹ s⁻¹.

The target of a further assay is T1, human PVRIG expressed on cells. As to the kind of experiment: cell-based or functional assay. The source holds these as a separate data set.
With B5, the “NK92 killing … (%), 4 nM antibody” value was determined as 7.7%; the “NK92 killing … (%), 20 nM antibody” value was determined as 14.5%; the “NK92 killing … (%), 100 nM antibody” value is 17.7%.

As to B7, the “NK92 killing … (%), 4 nM antibody” value amounted to 9.2%; the “NK92 killing … (%), 20 nM antibody” value came to 9.9%; the “NK92 killing … (%), 100 nM antibody” value was found to be 13.3%.

The target is the same in a further assay. As to the kind of experiment: cell-based or functional assay. This is another data set of the same source.
On to B4, for which the “PVRIG reporter gene cell activity EC50” value came to 0.094 nM.

As to B1, the “PVRIG reporter gene cell activity EC50” value stood at 0.074 nM.

Take B2: the “PVRIG reporter gene cell activity EC50” value was 0.191 nM.

B5: the “PVRIG reporter gene cell activity EC50” value came to 0.176 nM.

As for B6, the “PVRIG reporter gene cell activity EC50” value amounted to 0.078 nM.

As to B8, the “PVRIG reporter gene cell activity EC50” value was 3.55 nM.

Turning to B3, the “PVRIG reporter gene cell activity EC50” value amounted to 0.038 nM.

B7: the “PVRIG reporter gene cell activity EC50” value turned out to be 0.042 nM.

The target is the same in another assay. As to the kind of experiment: FACS, HEK293 cells overexpressing target. The protocol:
(§1) The expression plasmid carrying human or cynomolgus monkey PVRIG gene sequence was transfected into HEK293 cells, and the over-expressing stable transfection monoclonal cell strain was obtained by antibiotic screening and infinite dilution. Overexpressing cells were seeded into a 96-well plate at 2×10⁵ cells/per well. The cells were centrifuged at 300 g for 5 min, the supernatant was then removed, 100 μL of the test antibody was added, and the mixture was incubated at 4° C. for 1 h. The mixture was centrifuged, the supernatant was removed, the plate was washed 3 times with 200 μL of wash buffer (PBS+2% FBS), and then 100 μL of an anti-human IgG secondary antibody (Invitrogen, A-11013) labeled with Alexa Fluor 488 diluted at 1:500 was added. The mixture was incubated at 4° C. for 1 h. The plate was centrifuged, and the supernatant was removed. The plate was washed 3 times with 200 μL of wash buffer (PBS+2% FBS). The cells were resuspended in 100 μL of PBS and tested on a flow cytometer (BD FACS Calibur or BD FACS Canto_II).
(§2) Binding of the humanized anti-PVRIG antibodies to human or cynomolgus monkey PVRIG was detected by using a flow cytometer according to the method of Example 5.
(A flow cytometer gives signals particle by particle.)
For orientation: EC50 means the concentration at which the effect is half-maximal. The molecule B4 displayed an EC50 of 5 pM.

As for B1, it took 6 pM to reach a half-maximal effect (EC50).

With B2, the EC50 is 4 pM.

Regarding B5, the concentration for a half-maximal effect (EC50) worked out at 3 pM.

Consider B6, for which the midpoint of the response, the EC50, lay at 4 pM.

Molecule B8 came in with a concentration giving a half-maximal response (EC50) of 240 pM.

The molecule B3 had a half-maximal effective concentration (EC50) of 2 pM.

As to B7, the concentration for a half-maximal effect (EC50) was 5 pM.

B9 registered an EC50 of 88 pM.

Another assay has as its target T3, cynomolgus monkey PVRIG expressed on …. As to the kind of experiment: FACS, HEK293 cells overexpressing target. Here is the method:
as §1, §2
In turn, B4 yielded an EC50 of 0.006 nM.

Turning to B1, it took 0.019 nM to reach a half-maximal effect (EC50).

In the case of B2, the 50% effective concentration (EC50) amounted to 0.251 nM.

B5 registered a concentration giving a half-maximal response (EC50) of 0.005 nM.

Turning to B6, the concentration giving a half-maximal response (EC50) came to 0.003 nM.

With B8, a half-maximal effect (EC50) was put at 0.035 nM.

With B3, the midpoint of the response, the EC50, lay at 0.467 nM.

Molecule B7 showed a concentration for a half-maximal effect (EC50) of 0.007 nM.

In the case of B9, the response was half-maximal at 0.137 nM (EC50).
